The source of these data is the Human Domainome abundance scans (Beltran et al. 2025).

± gives the uncertainty stated by the source.

B1: Tripartite motif-containing protein 44, residues 174 to 218; numbered along this chain, Q96DX7 (parent)
chain: VAKRKCPDHGLDLSTYCQEDRQLICVLCPVIGAHQGHQLSTLDEA

Variants of B1 are the subject of the series. Put plainly: abundance fitness (aPCA) (normalised: wild type 0, dead -1); higher = more abundant; growth selection in yeast, the domain comes from the species named. The note with it: Homo sapiens.
VAKRKCPDHGLDLSTYFQEDRQLICVLCPVIGAHQGHQLSTLDEA [C17F]: the abundance fitness was -0.334 ± 0.16.
Then VAKRKCPDHGLDLSTYGQEDRQLICVLCPVIGAHQGHQLSTLDEA [C17G], with -0.557 ± 0.027.
Then VAKRKCPDHGLDLSTYSQEDRQLICVLCPVIGAHQGHQLSTLDEA [C17S], with -0.562 ± 0.038.
As to VAKRKCPDHGLDLSTYKQEDRQLICVLCPVIGAHQGHQLSTLDEA [C17K], the abundance fitness was -0.657 ± 0.052.
Then VAKRKCPDHGLDLSTYIQEDRQLICVLCPVIGAHQGHQLSTLDEA [C17I], with -0.759 ± 0.091.
Turning to VAKRKCPDHGLDLSTYWQEDRQLICVLCPVIGAHQGHQLSTLDEA [C17W], the abundance fitness is -0.931 ± 0.045.
Turning to VAKRKCPDHGLDLSTYYQEDRQLICVLCPVIGAHQGHQLSTLDEA [C17Y], the abundance fitness is -0.767 ± 0.094.
Then VAKRKCPDHGLDLSTYDQEDRQLICVLCPVIGAHQGHQLSTLDEA [C17D], with -0.631 ± 0.064; and VAKRKCPDHGLDLSTYMQEDRQLICVLCPVIGAHQGHQLSTLDEA [C17M], with -0.779 ± 0.067; and VAKRKCPDHGLDLSTYAQEDRQLICVLCPVIGAHQGHQLSTLDEA [C17A], with -0.641 ± 0.031.
Under VAKRKCPDHGLDLSTYVQEDRQLICVLCPVIGAHQGHQLSTLDEA [C17V] stands -0.753 ± 0.036; under VAKRKCPDHGLDLSTYQQEDRQLICVLCPVIGAHQGHQLSTLDEA [C17Q], -0.633 ± 0.045; under VAKRKCPDHGLDLSTYHQEDRQLICVLCPVIGAHQGHQLSTLDEA [C17H], -0.818 ± 0.098.
Under VAKRKCPDHGLDLSTYEQEDRQLICVLCPVIGAHQGHQLSTLDEA [C17E] stands -0.546 ± 0.035; under VAKRKCPDHGLDLSTYLQEDRQLICVLCPVIGAHQGHQLSTLDEA [C17L], -0.982 ± 0.059.
With VAKRKCPDHGLDLSTYPQEDRQLICVLCPVIGAHQGHQLSTLDEA [C17P], the abundance fitness was -0.751 ± 0.056.
Then VAKRKCPDHGLDLSTYRQEDRQLICVLCPVIGAHQGHQLSTLDEA [C17R], with -0.484 ± 0.029.
Regarding VAKRKCPDHGLDLSTYTQEDRQLICVLCPVIGAHQGHQLSTLDEA [C17T], the abundance fitness was -0.705 ± 0.047.
Then VAKRKCPDHGLDLSTYCQETRQLICVLCPVIGAHQGHQLSTLDEA [D20T], with -0.217 ± 0.037; and VAKRKCPDHGLDLSTYCQEGRQLICVLCPVIGAHQGHQLSTLDEA [D20G], with -0.487 ± 0.026.
Regarding VAKRKCPDHGLDLSTYCQEYRQLICVLCPVIGAHQGHQLSTLDEA [D20Y], the abundance fitness is -0.57 ± 0.1.
Under VAKRKCPDHGLDLSTYCQEERQLICVLCPVIGAHQGHQLSTLDEA [D20E] stands -0.033 ± 0.029; under VAKRKCPDHGLDLSTYCQEARQLICVLCPVIGAHQGHQLSTLDEA [D20A], -0.585 ± 0.034.
As for VAKRKCPDHGLDLSTYCQESRQLICVLCPVIGAHQGHQLSTLDEA [D20S], the abundance fitness is -0.138 ± 0.032.
Then VAKRKCPDHGLDLSTYCQEKRQLICVLCPVIGAHQGHQLSTLDEA [D20K], with -0.3 ± 0.036; and VAKRKCPDHGLDLSTYCQEHRQLICVLCPVIGAHQGHQLSTLDEA [D20H], with -0.141 ± 0.047.
As to VAKRKCPDHGLDLSTYCQEFRQLICVLCPVIGAHQGHQLSTLDEA [D20F], the abundance fitness was -0.914 ± 0.14.
Under VAKRKCPDHGLDLSTYCQECRQLICVLCPVIGAHQGHQLSTLDEA [D20C] stands -0.045 ± 0.045; under VAKRKCPDHGLDLSTYCQENRQLICVLCPVIGAHQGHQLSTLDEA [D20N], -0.419 ± 0.056.
Then VAKRKCPDHGLDLSTYCQEQRQLICVLCPVIGAHQGHQLSTLDEA [D20Q], with -0.377 ± 0.047.
Under VAKRKCPDHGLDLSTYCQERRQLICVLCPVIGAHQGHQLSTLDEA [D20R] stands -0.072 ± 0.026; under VAKRKCPDHGLDLSTYCQEVRQLICVLCPVIGAHQGHQLSTLDEA [D20V], -0.642 ± 0.032; under VAKRKCPDHGLDLSTYCQEMRQLICVLCPVIGAHQGHQLSTLDEA [D20M], -0.685 ± 0.051.
For VAKRKCPDHGLDLSTYCQELRQLICVLCPVIGAHQGHQLSTLDEA [D20L], the abundance fitness is -0.656 ± 0.038.
In the case of VAKRKCPDHGLDLSTYCQEPRQLICVLCPVIGAHQGHQLSTLDEA [D20P], the abundance fitness was -0.896 ± 0.079.
Turning to VAKRKCPDHGLDLSSYCQEDRQLICVLCPVIGAHQGHQLSTLDEA [T15S], the abundance fitness was -0.03 ± 0.03.
Then VAKRKCPDHGLDLSWYCQEDRQLICVLCPVIGAHQGHQLSTLDEA [T15W], with -0.2 ± 0.03; and VAKRKCPDHGLDLSHYCQEDRQLICVLCPVIGAHQGHQLSTLDEA [T15H], with -0.033 ± 0.043; and VAKRKCPDHGLDLSYYCQEDRQLICVLCPVIGAHQGHQLSTLDEA [T15Y], with 0.001 ± 0.1.
For the variant VAKRKCPDHGLDLSQYCQEDRQLICVLCPVIGAHQGHQLSTLDEA [T15Q], the abundance fitness was found to be 0.039 ± 0.033.
Under VAKRKCPDHGLDLSNYCQEDRQLICVLCPVIGAHQGHQLSTLDEA [T15N] stands 0.014 ± 0.039; under VAKRKCPDHGLDLSMYCQEDRQLICVLCPVIGAHQGHQLSTLDEA [T15M], -0.106 ± 0.039; under VAKRKCPDHGLDLSPYCQEDRQLICVLCPVIGAHQGHQLSTLDEA [T15P], -0.544 ± 0.04.
As for VAKRKCPDHGLDLSGYCQEDRQLICVLCPVIGAHQGHQLSTLDEA [T15G], the abundance fitness is -0.101 ± 0.025.
Then VAKRKCPDHGLDLSRYCQEDRQLICVLCPVIGAHQGHQLSTLDEA [T15R], with -0.054 ± 0.027; and VAKRKCPDHGLDLSIYCQEDRQLICVLCPVIGAHQGHQLSTLDEA [T15I], with -0.137 ± 0.062; and VAKRKCPDHGLDLSKYCQEDRQLICVLCPVIGAHQGHQLSTLDEA [T15K], with 0.048 ± 0.035.
Then VAKRKCPDHGLDLSLYCQEDRQLICVLCPVIGAHQGHQLSTLDEA [T15L], with -0.196 ± 0.03; and VAKRKCPDHGLDLSVYCQEDRQLICVLCPVIGAHQGHQLSTLDEA [T15V], with -0.198 ± 0.027.
On to VAKRKCPDHGLDLSTYCQEDHQLICVLCPVIGAHQGHQLSTLDEA [R21H], for which the abundance fitness worked out at 0.029 ± 0.044.
Under VAKRKCPDHGLDLSTYCQEDAQLICVLCPVIGAHQGHQLSTLDEA [R21A] stands 0 ± 0.027; under VAKRKCPDHGLDLSTYCQEDCQLICVLCPVIGAHQGHQLSTLDEA [R21C], 0.009 ± 0.032.
Under VAKRKCPDHGLDLSTYCQEDGQLICVLCPVIGAHQGHQLSTLDEA [R21G] stands 0.025 ± 0.025; under VAKRKCPDHGLDLSTYCQEDKQLICVLCPVIGAHQGHQLSTLDEA [R21K], 0.063 ± 0.037; under VAKRKCPDHGLDLSTYCQEDMQLICVLCPVIGAHQGHQLSTLDEA [R21M], -0.016 ± 0.034.
In the case of VAKRKCPDHGLDLSTYCQEDEQLICVLCPVIGAHQGHQLSTLDEA [R21E], the abundance fitness was determined as 0.043 ± 0.029.
Then VAKRKCPDHGLDLSTYCQEDDQLICVLCPVIGAHQGHQLSTLDEA [R21D], with 0.071 ± 0.035.
